Where “and” joins values, the source holds several entries; their conditions need not be identical. Equal entries are not always repeated. Ends that are not written are not given here. * marks the point of attachment. C16 diacid = O=C(O)CCCCCCCCCCCCCCC(=O)*
T1: human GIP receptor (human, UniProt P48546 22-466)
T1 sequence (looked up): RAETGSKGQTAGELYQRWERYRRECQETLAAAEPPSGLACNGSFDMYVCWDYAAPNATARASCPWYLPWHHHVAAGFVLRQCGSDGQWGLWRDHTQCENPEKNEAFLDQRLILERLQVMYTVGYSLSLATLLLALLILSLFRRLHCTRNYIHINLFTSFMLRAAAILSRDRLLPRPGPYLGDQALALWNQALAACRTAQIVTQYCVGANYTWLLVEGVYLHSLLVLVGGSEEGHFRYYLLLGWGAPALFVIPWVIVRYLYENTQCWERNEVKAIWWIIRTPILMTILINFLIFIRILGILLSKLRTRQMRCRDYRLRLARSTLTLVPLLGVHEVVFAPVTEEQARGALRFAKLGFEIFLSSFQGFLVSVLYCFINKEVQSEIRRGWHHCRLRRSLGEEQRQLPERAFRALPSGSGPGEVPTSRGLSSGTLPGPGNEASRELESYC

T2: human GIP receptor (human, UniProt P48546 22-466)
T2 construct: whole, on cells; also called hGIPR
T2 sequence (looked up): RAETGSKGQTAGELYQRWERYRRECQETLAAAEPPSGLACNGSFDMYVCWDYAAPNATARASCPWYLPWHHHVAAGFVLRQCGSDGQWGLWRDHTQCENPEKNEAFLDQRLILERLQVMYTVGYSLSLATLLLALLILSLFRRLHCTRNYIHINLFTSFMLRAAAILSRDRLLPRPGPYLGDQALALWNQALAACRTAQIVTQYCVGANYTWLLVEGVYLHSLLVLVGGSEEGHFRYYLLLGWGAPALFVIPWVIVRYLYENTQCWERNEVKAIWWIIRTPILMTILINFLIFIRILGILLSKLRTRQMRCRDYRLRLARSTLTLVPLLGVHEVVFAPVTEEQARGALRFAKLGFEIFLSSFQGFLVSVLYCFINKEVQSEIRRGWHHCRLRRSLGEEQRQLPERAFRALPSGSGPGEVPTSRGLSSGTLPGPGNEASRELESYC

B1: hGIP(5-30)NH2 (peptide)
peptide: TFISDYSIAMDKIHQQDFVNWLLAQK-NH2
notes: Not lipidated
B2: AT184 [hGIP(5-30)NH2[N24K]-C16diacid/24] (peptide)
peptide: TFISDYSIAMDKIHQQDFVK(C16 diacid)WLLAQK-NH2
modifications: N-terminus assumed
SMILES: CC[C@H](C)[C@H](NC(=O)[C@H](CO)NC(=O)[C@H](Cc1ccc(O)cc1)NC(=O)[C@H](CC(=O)O)NC(=O)[C@H](CO)NC(=O)[C@@H](NC(=O)[C@H](Cc1ccccc1)NC(=O)[C@@H](N)[C@@H](C)O)[C@@H](C)CC)C(=O)N[C@@H](C)C(=O)N[C@@H](CCSC)C(=O)N[C@@H](CC(=O)O)C(=O)N[C@@H](CCCCN)C(=O)N[C@H](C(=O)N[C@@H](Cc1c[nH]cn1)C(=O)N[C@@H](CCC(N)=O)C(=O)N[C@@H](CCC(N)=O)C(=O)N[C@@H](CC(=O)O)C(=O)N[C@@H](Cc1ccccc1)C(=O)N[C@H](C(=O)N[C@@H](CCCCNC(=O)CCCCCCCCCCCCCCC(=O)O)C(=O)N[C@@H](Cc1c[nH]c2ccccc12)C(=O)N[C@@H](CC(C)C)C(=O)N[C@@H](CC(C)C)C(=O)N[C@@H](C)C(=O)N[C@@H](CCC(N)=O)C(=O)N[C@@H](CCCCN)C(N)=O)C(C)C)[C@@H](C)CC
B3: AT187 [hGIP(5-30)NH2[L27K]-C16diacid/27] (peptide)
peptide: TFISDYSIAMDKIHQQDFVNWLK(C16 diacid)AQK-NH2
modifications: N-terminus assumed
SMILES: CC[C@H](C)[C@H](NC(=O)[C@H](CO)NC(=O)[C@H](Cc1ccc(O)cc1)NC(=O)[C@H](CC(=O)O)NC(=O)[C@H](CO)NC(=O)[C@@H](NC(=O)[C@H](Cc1ccccc1)NC(=O)[C@@H](N)[C@@H](C)O)[C@@H](C)CC)C(=O)N[C@@H](C)C(=O)N[C@@H](CCSC)C(=O)N[C@@H](CC(=O)O)C(=O)N[C@@H](CCCCN)C(=O)N[C@H](C(=O)N[C@@H](Cc1c[nH]cn1)C(=O)N[C@@H](CCC(N)=O)C(=O)N[C@@H](CCC(N)=O)C(=O)N[C@@H](CC(=O)O)C(=O)N[C@@H](Cc1ccccc1)C(=O)N[C@H](C(=O)N[C@@H](CC(N)=O)C(=O)N[C@@H](Cc1c[nH]c2ccccc12)C(=O)N[C@@H](CC(C)C)C(=O)N[C@@H](CCCCNC(=O)CCCCCCCCCCCCCCC(=O)O)C(=O)N[C@@H](C)C(=O)N[C@@H](CCC(N)=O)C(=O)N[C@@H](CCCCN)C(N)=O)C(C)C)[C@@H](C)CC
B4: AT186 [hGIP(5-30)NH2[L26K]-C16diacid/26] (peptide)
peptide: TFISDYSIAMDKIHQQDFVNWK(C16 diacid)LAQK-NH2
modifications: N-terminus assumed
SMILES: CC[C@H](C)[C@H](NC(=O)[C@H](CO)NC(=O)[C@H](Cc1ccc(O)cc1)NC(=O)[C@H](CC(=O)O)NC(=O)[C@H](CO)NC(=O)[C@@H](NC(=O)[C@H](Cc1ccccc1)NC(=O)[C@@H](N)[C@@H](C)O)[C@@H](C)CC)C(=O)N[C@@H](C)C(=O)N[C@@H](CCSC)C(=O)N[C@@H](CC(=O)O)C(=O)N[C@@H](CCCCN)C(=O)N[C@H](C(=O)N[C@@H](Cc1c[nH]cn1)C(=O)N[C@@H](CCC(N)=O)C(=O)N[C@@H](CCC(N)=O)C(=O)N[C@@H](CC(=O)O)C(=O)N[C@@H](Cc1ccccc1)C(=O)N[C@H](C(=O)N[C@@H](CC(N)=O)C(=O)N[C@@H](Cc1c[nH]c2ccccc12)C(=O)N[C@@H](CCCCNC(=O)CCCCCCCCCCCCCCC(=O)O)C(=O)N[C@@H](CC(C)C)C(=O)N[C@@H](C)C(=O)N[C@@H](CCC(N)=O)C(=O)N[C@@H](CCCCN)C(N)=O)C(C)C)[C@@H](C)CC
B5: AT189 [hGIP(5-30)NH2[Q29K]-C16diacid/29] (peptide)
peptide: TFISDYSIAMDKIHQQDFVNWLLAK(C16 diacid)K-NH2
modifications: N-terminus assumed
SMILES: CC[C@H](C)[C@H](NC(=O)[C@H](CO)NC(=O)[C@H](Cc1ccc(O)cc1)NC(=O)[C@H](CC(=O)O)NC(=O)[C@H](CO)NC(=O)[C@@H](NC(=O)[C@H](Cc1ccccc1)NC(=O)[C@@H](N)[C@@H](C)O)[C@@H](C)CC)C(=O)N[C@@H](C)C(=O)N[C@@H](CCSC)C(=O)N[C@@H](CC(=O)O)C(=O)N[C@@H](CCCCN)C(=O)N[C@H](C(=O)N[C@@H](Cc1c[nH]cn1)C(=O)N[C@@H](CCC(N)=O)C(=O)N[C@@H](CCC(N)=O)C(=O)N[C@@H](CC(=O)O)C(=O)N[C@@H](Cc1ccccc1)C(=O)N[C@H](C(=O)N[C@@H](CC(N)=O)C(=O)N[C@@H](Cc1c[nH]c2ccccc12)C(=O)N[C@@H](CC(C)C)C(=O)N[C@@H](CC(C)C)C(=O)N[C@@H](C)C(=O)N[C@@H](CCCCNC(=O)CCCCCCCCCCCCCCC(=O)O)C(=O)N[C@@H](CCCCN)C(N)=O)C(C)C)[C@@H](C)CC
B6: AT185 [hGIP(5-30)NH2[W25K]-C16diacid/25] (peptide)
peptide: TFISDYSIAMDKIHQQDFVNK(C16 diacid)LLAQK-NH2
modifications: N-terminus assumed
SMILES: CC[C@H](C)[C@H](NC(=O)[C@H](CO)NC(=O)[C@H](Cc1ccc(O)cc1)NC(=O)[C@H](CC(=O)O)NC(=O)[C@H](CO)NC(=O)[C@@H](NC(=O)[C@H](Cc1ccccc1)NC(=O)[C@@H](N)[C@@H](C)O)[C@@H](C)CC)C(=O)N[C@@H](C)C(=O)N[C@@H](CCSC)C(=O)N[C@@H](CC(=O)O)C(=O)N[C@@H](CCCCN)C(=O)N[C@H](C(=O)N[C@@H](Cc1c[nH]cn1)C(=O)N[C@@H](CCC(N)=O)C(=O)N[C@@H](CCC(N)=O)C(=O)N[C@@H](CC(=O)O)C(=O)N[C@@H](Cc1ccccc1)C(=O)N[C@H](C(=O)N[C@@H](CC(N)=O)C(=O)N[C@@H](CCCCNC(=O)CCCCCCCCCCCCCCC(=O)O)C(=O)N[C@@H](CC(C)C)C(=O)N[C@@H](CC(C)C)C(=O)N[C@@H](C)C(=O)N[C@@H](CCC(N)=O)C(=O)N[C@@H](CCCCN)C(N)=O)C(C)C)[C@@H](C)CC

Legend:
[1] = target: T1, human GIP receptor; test: cell-based or functional assay
[2] = target: T1, human GIP receptor; test: 125I-hGIP(1-42) competition binding, COS-7 cells expressing human GIPR, with 2% HSA;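 also: nonspecific signal taken as radioligand bound to untransfected cells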
Experimental: (§1) After incubation, the cells were washed twice in ice-cold binding buffer (+/−2% HSA) and lysed using 200 mM NaOH with 1% SDS for 30 min. Nonspecific binding was determined as the binding of radioactive ligand to untransfected cells.

[3] = target: T1, human GIP receptor; test: 125I-hGIP(1-42) competition binding, COS-7 cells expressing human GIPR, without HSA;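 also: nonspecific binding defined as radioligand bound to cells lacking the transfected receptor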
Experimental: as §1

[4] = target: T1, human GIP receptor; test: ratio of Ki with 2% HSA to Ki without HSA, 125I-hGIP competition binding on hGIPR COS-7 cells;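 also: nonspecific binding was defined as radioligand signal on cells lacking the receptor transfection, with cell lysates measured after washes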
Experimental: as §1

[5] = target: T2, human GIP receptor; test: IC50 with 2% HSA over IC50 with 0.1% casein, 125I-hGIP competition, COS-7/hGIPR
Experimental: as §1

[6] = target: T2, human GIP receptor; test: 125I-hGIP competition binding, COS-7 cells expressing hGIPR;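 also: nonspecific binding taken as radioligand bound by untransfected cells, binding buffer with or without 2% HSA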
Experimental: as §1

[7] = target: T2, human GIP receptor; test: 125I-hGIP competition binding, COS-7/hGIPR, 2% HSA;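 also: nonspecific binding defined as radioligand binding to untransfected cells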
Experimental: as §1

[8] = target: T2, human GIP receptor; test: cell-based or functional assay; remark: listed apart in the source
[9] = target: T2, human GIP receptor; test: 125I-hGIP competition binding, COS-7/hGIPR, 0.1% casein;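 also: nonspecific binding defined as radioligand binding measured on untransfected cells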
Experimental: as §1

| Binder | cAMP accumulation IC50 [1] [nM] | cAMP accumulation logIC50 [1] | Ki [2] [nM] | Ki [3] [nM] | Fold (Ki + HSA / Ki - HSA) [4] [fold] | Fold change HSA (2%)/Casein (0.1%) [5] [fold] | IC50 [6] [nM] | log IC50 [6] | IC50 [7] [nM] | logIC50 [7] [log M] | cAMP agonism, Emax [8] | cAMP antagonism [8] [nM] | cAMP antagonism, log [8] [log M] | IC50 [9] [nM] | logIC50 [9] [log M] | cAMP agonism [8] [nM] | cAMP agonism, EC50 (log) [8] |
| --- | --- | --- | --- | --- | --- | --- | --- | --- | --- | --- | --- | --- | --- | --- | --- | --- | --- |
| B1 | 27.5 | -7.56 log(M) | 6.7 | 6.3 | 1 |  |  |  |  |  |  |  |  |  |  |  |  |
| B2 |  |  |  |  |  | 1.6 | 247 | -6.6 log M | 11200 | -5 | 0 | 91 | -7 | 7080 | -5.2 |  |  |
| B3 |  |  |  |  |  | 4.7 | 26500 | -4.6 log M and -4.58 log M | 676 | -6.2 | 25 | 2380 | -5.6 | 144 | -6.8 | 2380 | -6 log M and -5.6 log M |
| B4 |  |  |  |  |  | 3.8 | 144 | -6.8 log M and -6.84 log M | 331 | -6.5 | 0 | 79 | -7.1 | 87.1 | -7.1 |  |  |
| B5 |  |  |  |  |  | 3.2 | 118 | -6.9 log M and -6.93 log M | 575 | -6.2 | 12 | 79 | -7.1 | 182 | -6.7 | 79 | -7 log M and -7.1 log M |
| B6 |  |  |  |  |  | 4.7 | 87 | -7.1 log M | 1150 | -5.9 | 18 | 44 | -7.4 | 246 | -6.6 | 44 | -7 log M |

Source: patent publication US20200087373A1 (UNIVERSITY OF COPENHAGEN, published 2020)
